Test results reported in US20150125857A1.

Legend:
[1] = target: Frizzled (FZD) on the cell surface of pancreatic cancer cell lines; experiment: flow cytometry, YAPC cells stably expressing wild-type RNF43
[2] = target: Frizzled (FZD) on the cell surface of pancreatic cancer cell lines; experiment: flow cytometry, YAPC cells treated with 3 uM IWP-2
[3] = target: Frizzled (FZD) on the cell surface of pancreatic cancer cell lines; experiment: flow cytometry, YAPC cells transfected with pGL2 siRNA (control)
[4] = target: Frizzled (FZD) on the cell surface of pancreatic cancer cell lines; experiment: flow cytometry, YAPC cells stably expressing empty vector (EV)
[5] = target: Frizzled (FZD) on the cell surface of pancreatic cancer cell lines; experiment: flow cytometry, YAPC cells, RNF43 siRNA
[6] = target: Frizzled (FZD) on the cell surface of pancreatic cancer cell lines; experiment: flow cytometry, YAPC cells treated with 1 uM LGK974
[7] = target: Frizzled (FZD) on the cell surface of pancreatic cancer cell lines; experiment: flow cytometry, HPAFII cells, RNF43 siRNA
[8] = target: Frizzled (FZD) on the cell surface of pancreatic cancer cell lines; experiment: flow cytometry, Capan-2 cells, RNF43 siRNA
[9] = target: Frizzled (FZD) on the cell surface of pancreatic cancer cell lines; experiment: flow cytometry, HPAFII cells, pGL2 siRNA
[10] = target: Frizzled (FZD) on the cell surface of pancreatic cancer cell lines; experiment: flow cytometry, PK1 cells, RNF43 siRNA
[11] = target: Frizzled (FZD) on the cell surface of pancreatic cancer cell lines; experiment: flow cytometry, Capan-2 cells, pGL2 siRNA
[12] = target: Frizzled (FZD) on the cell surface of pancreatic cancer cell lines; experiment: flow cytometry, YAPC cells transfected with RNF43 siRNA#1, 18R5 + APC anti-human IgG
[13] = target: Frizzled (FZD) on the cell surface of pancreatic cancer cell lines; experiment: flow cytometry, YAPC cells transfected with RNF43 siRNA#2, 18R5 + APC anti-human IgG
[14] = target: Frizzled (FZD) on the cell surface of pancreatic cancer cell lines; experiment: flow cytometry, PaTu-8988S cells, RNF43 siRNA
[15] = target: Frizzled (FZD) on the cell surface of pancreatic cancer cell lines; experiment: flow cytometry, YAPC cells stably expressing RNF43 F69C
[16] = target: Frizzled (FZD) on the cell surface of pancreatic cancer cell lines; experiment: flow cytometry, PK1 cells, pGL2 siRNA
[17] = target: Frizzled (FZD) on the cell surface of pancreatic cancer cell lines; experiment: flow cytometry, YAPC cells, pGL2 siRNA
[18] = target: Frizzled (FZD) on the cell surface of pancreatic cancer cell lines; experiment: flow cytometry, YAPC cells stably expressing RNF43 deltaRING
[19] = target: Frizzled (FZD) on the cell surface of pancreatic cancer cell lines; experiment: flow cytometry, YAPC cells treated with DMSO
[20] = target: Frizzled (FZD) on the cell surface of pancreatic cancer cell lines; experiment: flow cytometry, YAPC cells transfected with pGL2 siRNA (control), 18R5 + APC anti-human IgG
[21] = target: Frizzled (FZD) on the cell surface of pancreatic cancer cell lines; experiment: flow cytometry, YAPC cells transfected with beta-catenin siRNA#2
[22] = target: Frizzled (FZD) on the cell surface of pancreatic cancer cell lines; experiment: flow cytometry, PaTu-8988S cells, pGL2 siRNA
[23] = target: Frizzled (FZD) on the cell surface of pancreatic cancer cell lines; experiment: flow cytometry, YAPC cells transfected with beta-catenin siRNA#1

B1: pan-Frizzled antibody 18R5 (antibody, INN chains, looked up, V domains shown)
VH: EVQLVESGGGLVQPGGSLRLSCAASGFTFSHYTLSWVRQAPGKGLEWVSVISGDGSYTYYADSVKGRFTISSDNSKNTLYLQMNSLRAEDTAVYYCARNFIKYVFANWGQGTLVTVSS
VL: DIELTQPPSVSVAPGQTARISCSGDNIGSFYVHWYQQKPGQAPVLVIYDKSNRPSGIPERFSGSNSGNTATLTISGTQAEDEADYYCQSYANTLSLVFGGGTKLTVL
Q: Which membrane Frizzled intensity in flow cytometry (RNF43 re-expression) [1] does the source give for B1 here?
A: 686

Q: And the Median FZD intensity in FACS [2]?
A: 1750

Q: What about the Median FZD intensity in FACS [3] of the same binder?
A: 137

Q: What about the membrane Frizzled intensity in flow cytometry (RNF43 re-expression) [4] of the same binder?
A: 1040

Q: And the Mean FZD intensity in FACS [5]?
A: 1220

Q: And the Median FZD intensity in FACS [6]?
A: 1370

Q: And the Mean FZD intensity in FACS [7]?
A: 402

Q: What about the Mean FZD intensity in FACS [8] of the same binder?
A: 2640

Q: And the Mean FZD intensity in FACS [9]?
A: 375

Q: What about the Mean FZD intensity in FACS [10] of the same binder?
A: 923

Q: And the Mean FZD intensity in FACS [11]?
A: 2440

Q: And the Median FZD intensity in FACS [12]?
A: 1500

Q: And the Median FZD intensity in FACS [13]?
A: 1750

Q: And the Mean FZD intensity in FACS [14]?
A: 245

Q: What about the membrane Frizzled intensity in flow cytometry (RNF43 re-expression) [15] of the same binder?
A: 1500

Q: What about the Mean FZD intensity in FACS [16] of the same binder?
A: 473

Q: And the Mean FZD intensity in FACS [17]?
A: 353

Q: What about the membrane Frizzled intensity in flow cytometry (RNF43 re-expression) [18] of the same binder?
A: 2000

Q: And the Median FZD intensity in FACS [19]?
A: 721

Q: And the Median FZD intensity in FACS [20]?
A: 237

Q: What about the Median FZD intensity in FACS [21] of the same binder?
A: 561

Q: And the Mean FZD intensity in FACS [22]?
A: 293

Q: And the Median FZD intensity in FACS [23]?
A: 530
